The values below come from publication PMC11203266, “Continuous evolution of compact protein degradation tags regulated by selective molecular glues” (Science (New York, N.Y.), 2024).

Test [1] deals with two-zinc finger construct containing SD0, MBP–Avi–His fusion, biotinylated (UniProt Q13422). The test can be described thus: FRET; saturating pomalidomide. The following applies: complex.
The target is the same in test [2]. The test can be described thus: FRET; pomalidomide titration (compound EC50 of ternary complex formation).
Test [3] deals with DDB1^ΔBPB•CRBN complex (tags cleaved, for BLI) (human) (UniProt Q96SW2). The test can be described thus: BLI; pomalidomide.
Sequence of DDB1^ΔBPB•CRBN complex (tags cleaved, for BLI) (human) (Q96SW2 whole entry, stated change not applied, chain 1 of 2): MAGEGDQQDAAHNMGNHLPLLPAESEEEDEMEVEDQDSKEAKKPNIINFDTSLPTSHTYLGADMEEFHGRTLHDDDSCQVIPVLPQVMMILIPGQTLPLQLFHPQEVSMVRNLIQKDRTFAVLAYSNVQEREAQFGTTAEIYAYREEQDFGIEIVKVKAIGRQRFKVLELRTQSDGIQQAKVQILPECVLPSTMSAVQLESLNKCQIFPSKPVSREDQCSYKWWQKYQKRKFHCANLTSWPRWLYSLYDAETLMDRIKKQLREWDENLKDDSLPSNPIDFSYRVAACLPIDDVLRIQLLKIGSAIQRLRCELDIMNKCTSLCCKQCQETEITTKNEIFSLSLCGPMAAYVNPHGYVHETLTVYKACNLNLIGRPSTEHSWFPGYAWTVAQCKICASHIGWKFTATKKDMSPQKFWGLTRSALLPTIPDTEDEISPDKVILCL
Sequence of DDB1^ΔBPB•CRBN complex (tags cleaved, for BLI) (human) (Q16531 other isoform, or with tags, fused parts or gaps mutant, chain 2 of 2, further chain): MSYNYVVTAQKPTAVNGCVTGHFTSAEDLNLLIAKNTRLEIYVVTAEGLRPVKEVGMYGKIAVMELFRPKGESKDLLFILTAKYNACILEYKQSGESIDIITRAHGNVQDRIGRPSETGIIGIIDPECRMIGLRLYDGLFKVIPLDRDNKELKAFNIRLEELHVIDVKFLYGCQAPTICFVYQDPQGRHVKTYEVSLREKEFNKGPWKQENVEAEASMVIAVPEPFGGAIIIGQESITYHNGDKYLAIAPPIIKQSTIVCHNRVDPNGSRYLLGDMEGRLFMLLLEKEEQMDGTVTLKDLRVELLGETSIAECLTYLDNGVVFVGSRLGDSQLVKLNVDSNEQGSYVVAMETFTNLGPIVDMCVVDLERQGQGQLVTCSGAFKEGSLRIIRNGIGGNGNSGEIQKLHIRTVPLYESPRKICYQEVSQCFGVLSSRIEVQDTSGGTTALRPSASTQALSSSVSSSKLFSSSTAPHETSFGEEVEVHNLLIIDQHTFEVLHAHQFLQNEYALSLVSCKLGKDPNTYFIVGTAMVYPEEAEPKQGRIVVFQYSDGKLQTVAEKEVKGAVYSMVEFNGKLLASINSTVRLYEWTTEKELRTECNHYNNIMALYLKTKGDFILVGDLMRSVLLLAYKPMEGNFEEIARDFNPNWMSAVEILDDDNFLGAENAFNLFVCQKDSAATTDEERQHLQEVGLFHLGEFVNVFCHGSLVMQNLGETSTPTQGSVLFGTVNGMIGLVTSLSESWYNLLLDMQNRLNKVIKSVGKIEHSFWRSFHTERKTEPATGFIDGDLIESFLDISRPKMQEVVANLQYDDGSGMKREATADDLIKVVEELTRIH

Sequence of two-zinc finger construct containing SD0, MBP–Avi–His fusion, biotinylated (Q13422 other isoform, or with tags, fused parts or gaps): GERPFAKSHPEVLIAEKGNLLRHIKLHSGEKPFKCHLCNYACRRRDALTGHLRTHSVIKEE

Usually Kd stands for the concentration at which binding is half-saturated. High values mean lower affinity, low ones higher affinity. The EC50 is the concentration at which the effect is half-maximal. High values mean lower potency in that assay, low ones higher potency in that assay. For the substance “CRBN–eGFP•DDB1^ΔBPB (from UniProt Q96SW2 1-442; Q16531 1-395; Q16531 706-1140)”, in test [1], the Kd came out at 212 nM. Further, in test [2], the concentration giving a half-maximal response (EC50) was found to be 314 nM.
In general, koff refers to the rate constant with which the complex falls apart. A high value points to fast dissociation. Regarding “two-zinc finger construct containing SD0, MBP–Avi–His fusion, biotinylated (from UniProt Q13422 141-145; Q96JP5 450-460; Q13422 157-243)”, in test [3], the Kd was 245 nM and the koff amounted to 0.071 s⁻¹.
